# Reference: PMC5675868
# Columns and labels:
# [1] = tested on: T1, Aux1LS20-His6 (p56) (Bacillus subtilis plasmid pLS20cat), ORF:1a040432; test: EMSA; conditions: EMSA: 20 mM Tris-HCl pH 8, 1 mM EDTA, 5 mM MgCl2, 0.5 mM DTT, 100 mM KCl, 10% glycerol, 0.05 mg/ml BSA; 20 min 30°C then 10 min on ice; 2% agarose, 0.5x TBE …
# T1 sequence: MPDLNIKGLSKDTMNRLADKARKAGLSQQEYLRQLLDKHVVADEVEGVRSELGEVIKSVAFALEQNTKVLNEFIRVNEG
# [2] = target: T2, Aux2LS20-His6 (p57) (Bacillus subtilis plasmid pLS20cat) (UniProt E9RJ22); test: EMSA; conditions: EMSA: 20 mM Tris-HCl pH 8, 1 mM EDTA, 5 mM MgCl2, 0.5 mM DTT, 100 mM KCl, 10% glycerol, 0.05 mg/ml BSA; 20 min 30°C then 10 min on ice; 2% agarose, 0.5x TBE …
# T2 sequence: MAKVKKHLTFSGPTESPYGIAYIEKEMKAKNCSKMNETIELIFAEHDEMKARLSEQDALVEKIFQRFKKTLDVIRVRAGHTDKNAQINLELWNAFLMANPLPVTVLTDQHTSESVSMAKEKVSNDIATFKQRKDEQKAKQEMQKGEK
# [3] = target: Aux1_(LS20) with a C-terminal His(6) tag (Bacillus subtilis (plasmid pLS20cat)); test: AUC + other: dynamic light scattering; sedimentation velocity of the purified protein alone at 12 uM; diffusion coefficient from DLS combined with the S-value in the Svedberg equation; conditions as in Ramachandran et al., 2017
# [4] = target: Aux1_(LS20) with a C-terminal His(6) tag (Bacillus subtilis (plasmid pLS20cat)); test: AUC; sedimentation equilibrium of the purified protein alone at 12 uM, best fit to a single species model; conditions as in Ramachandran et al., 2017
# [5] = target: Aux2_(LS20) with a C-terminal His(6) tag (Bacillus subtilis (plasmid pLS20cat)); test: AUC + other: dynamic light scattering; sedimentation velocity of the purified protein alone at 12 uM; diffusion coefficient from DLS combined with the S-value in the Svedberg equation; conditions as in Ramachandran et al., 2017
# [6] = target: Aux2_(LS20) with a C-terminal His(6) tag (Bacillus subtilis (plasmid pLS20cat)); test: AUC; sedimentation equilibrium of the purified protein alone at 12 uM, best fit to a single species model; conditions as in Ramachandran et al., 2017
Substance,binding [1],binding [2],further results
AAATCACCTAAATAATGGTTGAACATAAATGTTTTTTTTATGTGCATTCAGCAATAAATCTGGTACCACGAAAAAACAAACCGCACTGCGGTTTCACCATGCAAATGGTGCCAGTTTCCCCTTATGCTCTTTCCTTTTCCACCCCCTCCTTCCTTCGGAATCGGGGGCCGGCTTTTTGCTGCCGCAAAAAGCCTTGGAAA (double strand) [F27],binds,binds more weakly,–
ACGAGCAAAGAAATGCTAGGTGAACTTGAAAAACGGAATGAATTATTGAAGAAAAGAAAGAGCAATCTCGTCATCGAAGACTAAATTTCTGTATGGAAAACAGTTATTTTTCGTGTGCATAAAATAAAGATTTATGTGCATTTAGTTCTAAATCACCTAAATAATGGTTGAACATAAATGTTTTTTTTATGTGCATTCAGC (double strand) [F21],–,binds,–
ATGGTGAAACCGCAGTGCGGTTTGTTTTTTCGTGGTACCAGATTTATTGCTGAATGCACATAAAAAAAACATTTATGTTCAACCATTATTTAGGTGATTTAGAACTAAATGCACATAAATCTTTATTTTATGCACACGAAAAATAACTGTTTTCCATACAGAAATTTAGTCTTCGATGACGAGATTGCTCTTTCTTTTCT (double strand) [F23],binds,binds,–
Aux1_(LS20) with a C-terminal His(6) tag (natural protein),–,–,stoichiometry N [3]: 4; stoichiometry N [4]: 4
Aux2_(LS20) with a C-terminal His(6) tag (natural protein),–,–,stoichiometry N [5]: 6; stoichiometry N [6]: 6
CAGTTATTTTTCGTGTGCATAAAATAAAGATTTATGTGCATTTAGTTCTAAATCACCTAAATAATGGTTGAACATAAATGTTTTTTTTATGTGCATTCAGCAATAAATCTGGTACCACGAAAAAACAAACCGCACTGCGGTTTCACCATGCAAATGGTGCCAGTTTCCCCTTATGCTCTTTCCTTTTCCACCCCCTCCTTC (double strand) [F25],binds,binds,–
CATCGATTTCTGCACATTACTTTGCAACGATCTGTTCAAATAAGTGTTTCTTTTTCCAAGGCTTTTTGCGGCAGCAAAAAGCCGGCCCCCGATTCCGAAGGAAGGAGGGGGTGGAAAAGGAAAGAGCATAAGGGGAAACTGGCACCATTTGCATGGTGAAACCGCAGTGCGGTTTGTTTTTTCGTGGTACCAGATTTATTG (double strand) [F29],binds,no binding,–
CGAAGACTAAATTTCTGTATGGAAAACAGTTATTTTTCGTGTGCATAAAATAAAGATTTATGTGCATTTAGTTCTAAATCACCTAAATAATGGTTGAACATAAATGTTTTTTTTATGTGCATTCAGCAATAAATCTGGTACCACGAAAAAACAAACCGCACTGCGGTTTCACCATGCAAATGGTGCCAGTTTCCCCTTAT (double strand) [F24],binds,binds,–
CGGCATTTGTTAACGCTCCTTTTCATCGATTTCTGCACATTACTTTGCAACGATCTGTTCAAATAAGTGTTTCTTTTTCCAAGGCTTTTTGCGGCAGCAAAAAGCCGGCCCCCGATTCCGAAGGAAGGAGGGGGTGGAAAAGGAAAGAGCATAAGGGGAAACTGGCACCATTTGCATGGTGAAACCGCAGTGCGGTTTGT (double strand) [F30],–,no binding,–
GCAAATGGTGCCAGTTTCCCCTTATGCTCTTTCCTTTTCCACCCCCTCCTTCCTTCGGAATCGGGGGCCGGCTTTTTGCTGCCGCAAAAAGCCTTGGAAAAAGAAACACTTATTTGAACAGATCGTTGCAAAGTAATGTGCAGAAATCGATGAAAAGGAGCGTTAACAAATGCCGGATCTCAACATCAAAGGTCTTTCAA (double strand) [F31],–,no binding,–
GCTCTTTCCTTTTCCACCCCCTCCTTCCTTCGGAATCGGGGGCCGGCTTTTTGCTGCCGCAAAAAGCCTTGGAAAAAGAAACACTTATTTGAACAGATCGTTGCAAAGTAATGTGCAGAAATCGATGAAAAGGAGCGTTAACAAATGCCGGATCTCAACATCAAAGGTCTTTCAAAAGATACAATGAATAGGCTTGCGGA (double strand) [F32],–,no binding,–
TAAAGATTTATGTGCATTTAGTTCTAAATCACCTAAATAATGGTTGAACATAAATGTTTTTTTTATGTGCATTCAGCAATAAATCTGGTACCACGAAAAAACAAACCGCACTGCGGTTTCACCATGCAAATGGTGCCAGTTTCCCCTTATGCTCTTTCCTTTTCCACCCCCTCCTTCCTTCGGAATCGGGGGCCGGCTTT (double strand) [F26],binds,binds more weakly,–
TAAATGTTTTTTTTATGTGCATTCAGCAATAAATCTGGTACCACGAAAAAACAAACCGCACTGCGGTTTCACCATGCAAATGGTGCCAGTTTCCCCTTATGCTCTTTCCTTTTCCACCCCCTCCTTCCTTCGGAATCGGGGGCCGGCTTTTTGCTGCCGCAAAAAGCCTTGGAAAAAGAAACACTTATTTGAACAGATCG (double strand) [F28],binds,binds more weakly,–
TGAGAAAGTCCTGCCTTCCTCGCTTTATCCGCAAGCCTATTCATTGTATCTTTTGAAAGACCTTTGATGTTGAGATCCGGCATTTGTTAACGCTCCTTTTCATCGATTTCTGCACATTACTTTGCAACGATCTGTTCAAATAAGTGTTTCTTTTTCCAAGGCTTTTTGCGGCAGCAAAAAGCCGGCCCCCGATTCCGAAGG (double strand) [F33],–,no binding,–
TTTTTCGTGGTACCAGATTTATTGCTGAATGCACATAAAAAAAACATTTATGTTCAACCATTATTTAGGTGATTTAGAACTAAATGCACATAAATCTTTATTTTATGCACACGAAAAATAACTGTTTTCCATACAGAAATTTAGTCTTCGATGACGAGATTGCTCTTTCTTTTCTTCAATAATTCATTCCGTTTTTCAAG (double strand) [F22],binds,binds,–
